Consider five sequences from article PMC7364221.

This data set deals with T1, ClbR (Escherichia coli Nissle 1917) (UniProt Q0P7J1).
T1 sequence: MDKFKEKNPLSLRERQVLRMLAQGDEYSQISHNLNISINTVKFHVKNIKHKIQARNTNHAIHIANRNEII
Put plainly: EMSA. To be noted: pH and temperature not stated. A general note: A gel shift assay detects complexes by their altered migration in electrophoresis.

In the case of “CCAGTCACGACGTTGTAATACGACGGCCAGAGAATCCGTAATCATAGTCATAGCTGTATCCTGTGTGAAATTGTTATCCGCTCATAATTTCACACAACATACGAGCCGGACACATAGAGTGTAAAGACTGGGGTGCCTAATGAGTGAGCTGACTCACATTAATTGTGTTGCGCTCACTGCCCGCTTTCCAGTCGGGAAACTTGTCGTGCCAGCTGCATTAATGAATCGG (double strand) [lacZ promoter probe (229 bp)]”, the binding result is on record as “no binding”.

With “GAGATTTTCCATGTAATAAGATGGACACGCGTAAGCAGTTACCGCTAACACCAAGTCAACAGGGGTTTTTATTCCATTCCTTAAAGGATAAGAAAAGGAGTAACTACCATGAGCA (double strand) [probe 8 (clbB upstream, 115 bp)]”, the binding result is “no binding”.

Take “TGCGGATAGGTGTGCCATTTAGAATAATCATGTTAAATAATCTATAAATCCGATAATAAGGTGATGGTTATGGATAATACCTCTGGAGATTTTCCATGTAATAAGATGGACACGCGTAAGCAGTTACCGCTAACACCAAGTCAACAGGGGTTTTTATTCCATTCCTTAAAGGATAAGAAAAGGAGTAACTACCATGAGCA (double strand) [probe 11 (clbB upstream, 200 bp)]”: the binding result is given as “no binding”. For the sequence “TGCTCATGGTAGTTACTCCTTTTCTTATCCTTTAAGGAATGGAATAAAAACCCCTGTTGACTTGGTGTTAGCGGTAACTGCTTACGCGTGTCCATCTTATTACATGGAAAATCTCCAGAGGTATTATCCATAACCATCACCTTATTATCGGATTTATAGATTATTTAACAT (double strand) [probe 7 (clbB upstream, 171 bp)]”, the binding result is “no binding”. The value for “TGCTCATGGTAGTTACTCCTTTTCTTATCCTTTAAGGAATGGAATAAAAACCCCTGTTGACTTGGTGTTAGCGGTAACTGCTTACGCGTGTCCATCTTATTACATGGAAAATCTCCAGAGGTATTATCCATAACCATCACCTTATTATCGGATTTATAGATTATTTAACATGATTATTCTAAATGG (double strand) [probe 12 (clbB upstream, 186 bp)]” was “no binding”.
